In PMC3093132:

Biological target: hExo1 catalytic domain D173A (Homo sapiens, UniProt Q9UQ84 1-352, D173A)
Assay: crystal structure

hExo1 catalytic domain D173A, sequence (Q9UQ84 1-352 D173A): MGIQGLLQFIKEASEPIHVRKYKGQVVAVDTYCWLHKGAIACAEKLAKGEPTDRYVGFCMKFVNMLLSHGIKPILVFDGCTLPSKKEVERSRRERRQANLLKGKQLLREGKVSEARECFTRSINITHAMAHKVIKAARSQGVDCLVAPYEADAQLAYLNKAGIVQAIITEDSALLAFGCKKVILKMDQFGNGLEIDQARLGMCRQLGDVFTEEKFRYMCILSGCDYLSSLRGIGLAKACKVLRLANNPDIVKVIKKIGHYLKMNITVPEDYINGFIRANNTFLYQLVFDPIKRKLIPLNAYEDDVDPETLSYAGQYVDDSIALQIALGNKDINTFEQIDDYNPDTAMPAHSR

B1: 5'-recessed-end substrate (gap mimic) (dsDNA)
DNA 1: TCGACTAGCG
DNA 2: CGCTAGTCGACAC
modifications: 5' phosphate on strand 1
B1: binds.
